Values of other authors in publication PMC7674454.

Target: calbindin D9k EF2 EF-hand 2 (Bos taurus) (UniProt P02633)
Test: SPR

- Kd: 3 pM
Substance: calbindin D9k EF1 EF-hand 1 (from UniProt P02633)
